Assay results from PMC6761829 (Nature structural & molecular biology, 2019).
Where no end group is shown, it is not given here.

B1: Full-length Drosophila melanogaster spastin with a Walker B mutation (E583Q) (enzyme, UniProt Q8I0P1 1-758, looked up)
chain: MVRTKNQSSSSSASSSSTKSPIKSSSGAGSSGGGLGGRQSTHRSSSASNVAAVVAGGSSAAGGGSSSNRRSPGSSPDGDDDTTTTDDLTPTTCSPRSGHHHSYGGYSSSVHKQNLYVVSFPIIFLFNVLRSLIYQLFCIFRYLYGASTKVIYRPHRRDCNIEIVVQNSSKEQQQSLNHPSELNREGDGQEQQLSNQPQRFRPIQPLEMAANRPGGGYSPGPGDPLLAKQKHHHRRAFEYISKALKIDEENEGHKELAIELYRKGIKELEDGIAVDCWSGRGDVWDRAQRLHDKMQTNLSMARDRLHFLALREQDLQMQRLSLKEKQKEEAQSKPQKTREPMLAGMTNEPMKLRVRSSGYGPKATTSAQPTASGRKLTIGSKRPVNLAVANKSQTLPRNLGSKTSVGAVQRQPAKTAATPPAVRRQFSSGRNTPPQRSRTPINNNGPSGSGASTPVVSVKGVEQKLVQLILDEIVEGGAKVEWTDIAGQDVAKQALQEMVILPSVRPELFTGLRAPAKGLLLFGPPGNGKTLLARAVATECSATFLNISAASLTSKYVGDGEKLVRALFAVARHMQPSIIFIDQVDSLLSERSSSEHEASRRLKTEFLVEFDGLPGNPDGDRIVVLAATNRPQELDEAALRRFTKRVYVSLPDEQTRELLLNRLLQKQGSPLDTEALRRLAKITDGYSGSDLTALAKDAALEPIRELNVEQVKCLDISAMRAITEQDFHSSLKRIRRSVAPQSLNSYEKWSQDYGDITI

Legend:
AUC = biological target: the molecule itself; test: AUC
[1] = biological target: B1; test: AUC

Row | Binder | stoichiometry N (AUC) | binding result [1]
1 | B1 | 6 | 
2 | Atto488-VGSEEEEEEEEEE [VGSEEEEEEEEEE peptide labeled with Atto488] |  | binds
